{"source": "the DeepSol protein solubility set", "data": [{"assay": "soluble on expression in E. coli; label from the status in PepcDB or PDB records", "values": [{"sequence": "MHLSPESLEAFVQAVSLGSFSAAARKLGKSQSTVSEAIARLEIDLGLELFDRSGRQPQLTEAGRTLLGRVEEVLGASDRLRRVAALLAGGSEPRVTLALSDTYHSARYEARLAELDERYPELEFECLIAEDQDVIAQVSRGRATLGLLAAQPHYPPELGVAAVAERAEFGLFAAVDHPLAGLERVSERDLSEWRLLRLNTYSETGAAINDGLPSSGGRCWSAPNYLLLLEMATHGFGWAELPRWLVSGYANGRLKELPVSGWPRSQAVDVVWSRQRPLGPAANWLLDRLLDRDLPI", "soluble on expression in E. coli": "not soluble"}, {"sequence": "MTEFSASLAPQVEAFLRYLSIERQLSPLTVTSYRRQLSALMEIGEQMGLAHWQTLDAAQVRSLVSRSKRAGLHASSLALRLSALRSFLNWLVSQGVLPANPAKGVSTPRSGRHLPKNIDVDEVNKLLSIDLNDPLAVRDRAMLEVMYGAGLRLSELVGMNCKHVDLASGDVWVMGKGSKERKVPLGKTAVTWLQHWLALRELFEPQDDAIFLANTGKRISARNVQKRFAEWGVKQGVSSHIHPHKLRHSFATHMLESSGDLRAVQELLGHANLTTTQIYTHLDFQHLATVYDAAHPRAKRGKS", "soluble on expression in E. coli": "not soluble"}, {"sequence": "MRPMGHAESVMSRFAHRVKSRRSWKDQGLRAFLKAMVARIDGIRWRKGPLEAEEPQSAVSASTKSKRIEQAKRKAGRLWADVVRQNLPCLQQSSGTPIHQALSALRDGGWV", "soluble on expression in E. coli": "not soluble"}, {"sequence": "MSLSETASWQPSASIPNLLKRAAIMAEIRRFFADRGVLEVETPCMSQATVTDIHLVPFETRFVGPGHSQGMNLWLMTSPEYHMKRLLVAGCGPVFQLCRSFRNEEMGRYHNPEFTMLEWYRPHYDMYRLMNEVDDLLQQVLDCPAAESLSYQQAFLRYLEIDPLSADKTQLREVAAKLDLSNVADTEEDRDTLLQLLFTFGVEPNIGKEKPTFVYHFPASQASLAQISTEDHRVAERFEVYYKGIELANGFHELTDAREQQQRFEQDNRKRAARGLPQHPIDQNLIEALKVGMPDCSGVALGVDRLVMLALGAETLAEVIAFSVDRAEGHHHHHH", "soluble on expression in E. coli": "soluble"}, {"sequence": "MIEVKHLKTLQALRNCGSLAAAAATLHQTQSALSHQFSDLEQRLGFRLFVRKSQPLRFTPQGEILLQLANQVLPQISQALQACNEPQQTRLRIAIECHSCIQWLTPALENFHKNWPQVEMDFKSGVTFDPQPALQQGELDLVMTSDILPRSGLHYSPMFDYEVRLVLAPDHPLAAKTRITPEDLASETLLIYPVQRSRLDVWRHFLQPAGVSPSLKSVDNTLLLIQMVAARMGIAALPHWVVESFERQGLVVTKTLGEGLWSRLYAAVRDGEQRQPVTEAFIRSARNHACDHLPFVKSAERPTYDAPTVRPGSPARL", "soluble on expression in E. coli": "soluble"}, {"sequence": "MSDVAVAETPAVKTPTKASKATKAKATKIPKVKVVAAHPPFINMITEAVSNLKDRKGSSRVAIFKFITAKYTLGDQVNKTNAHLRSALKKGVVSKVLVQTNGIGANGRFRLAVAEKPPAVKKAATGEQKVMKTVAKKAVSGDKAKKTVAKKTGDKVKKVKSPKRIAKPAVKKVTKKAAAPTKSAANETAPKKAAATEAAPKKAAVTKAATKKTPARKAVGTAPKA", "soluble on expression in E. coli": "soluble"}, {"sequence": "DLFVVEKPPSLPVHTCGQYAIHTVLGQLRVNEGRTGLRVLHRLDRATSGVLLFAKNYETDLEFKTTLKQGEWSKEYICKVDGVFPDEEQVCEQPIGPLVISMGIQCVRPDGKDAKSRFRKLWSDGTQSVVQVHIETGRTHQIRVHSQF", "soluble on expression in E. coli": "not soluble"}, {"sequence": "SLDFRDKVRNMDLQAGLYRHYKGQNYRVLGVARHSETEEALVIYQALYGEFGLWVRPLEMFTEAVEVDGEWVPRFVLVSPEADPLGLQKAPGGEDRA", "soluble on expression in E. coli": "soluble"}, {"sequence": "MEQRLLAVFDFDGTITRHDSFVPFLKFAFGQRVFSVRMARLVLPSLGYLTKRLSRDELKGRLIKAFLSGVEVQWLQQKAEAFCHSHWKRLMRPAALESIAAEIEKGAIVTLCSASPAMVLQPFADRLKVELIGTNLEVIDGKLTGLIEGSNCRCDSKVARLESVYGPLTQFRVRAWGDTRGDHELLAAAQDAHWRLFHPTWRRGRYKGPVNAKLHNPDGKDGPTR", "soluble on expression in E. coli": "not soluble"}, {"sequence": "GMPELAVQKVVVHPLVLLSVVDHFNRIGKVGNQKRVVGVLLGSWQKKVLDVSNSFAVPFDEDDKDDSVWFLDHDYLENMYGMFKKVNARERIVGWYHTGPKLHKNDIAINELMKRYCPNSVLVIIDVKPKDLGLPTEAYISVEEVHDDGTPTSKTFEHVTSEIGAEEAEEVGVEHLLRDIKDTTVGT", "soluble on expression in E. coli": "soluble"}, {"sequence": "MGRKSKNSSQSHAHGPVPGVYPTTTGEVELRADSFLPHAFEVYVNGVPSSHIAQDPEQLEYEYMRWIAAIVDWFVTTHSDPKKLRVTHLGGGACTLARYVCHRYPNARNTVVELDATLATLVREWFDLPRSPQLKIRVGDAWEVAQTFVPSSRDVIIRDVFAGNQTPRRLTTVEFFQQCHQALSPGGLYVANCGDHRDLNVAKAEVQGLREVFDHVACIADPTMLKGRRYGNIILIATDTQLPTDQEQQVLTRLLLGGGVPAQFKGGNWTKNFSSSSTARHD", "soluble on expression in E. coli": "not soluble"}, {"sequence": "MKEVMLFPLTSVVLPEGKMNLRIFEPRYKRMVKECSLQNVGFGVCLVGSEGDPKDVGNVSSIGTLVRIVDFETLSDGLLGITVAGEKRFVIKRVRADSDGLRHAEVEWLDNWQTPSQQLDFGYLSQQLAQVYEQFPQLGTLYQHRFYDDPIWVTQRWLELLPLDSHLFESLVGAQDCRPALRFLNQAIEAPSNKEARILEHHHHHH", "soluble on expression in E. coli": "soluble"}, {"sequence": "TYAFQRRRFWETPGADGPADAAGLGLGATEHALLGAVVERPDSDEVVLTGRLSLADQPWLADHVVNGVVLFPGAGFVELVIRAGDEVGCALIEELVLAAPLVMHPGVGVQVQVVVGAADESGHRAVSVYSRGDQSQGWLLNAEGMLGVAAAETPMDLSV", "soluble on expression in E. coli": "soluble"}, {"sequence": "MGSDKIHHHHHHMAPRGNQMLGNAHFRKHWHKRIKTWFDQPARKLRRRQNRQAKAVEIAPRPVAGLLRSVVRCPQKRYNTKTRLGRGFSLQELKAAGISQAQARTIGIAVDVRRTNKTAEGLKANADRLKEYKAKLILFPKKASAPKKGDSSAEELKVAAQLRGDVLPLSHTITFDEPRQVTDAERKVEIFRLLRKERADKKYRGKREKRAREAAEENK", "soluble on expression in E. coli": "not soluble"}, {"sequence": "MGSDKIHHHHHHMAFIQPDLQFNPDTLDNLVIGIAADMGEHDSGAHHHSKAQLLYASAGCMRFYLADTQVVLPPTRAAWLPAGVVHHVTMRNVAAYRSLYFEPETVASLPSRVTIFHVNPLLKALIDTMSFWPWDKPRQSQHNAFSLLCEELENATAENLVLPLPQDKRLKTWLKQLQQKKQPANLKKMAIEIGASERTISRIFNAQTGMAYQAWRQQWRLLSAIEQLAAGASVAQVGFNLQFSSDSAFISFFKQYTGTTPAQYFKSPSV", "soluble on expression in E. coli": "not soluble"}, {"sequence": "MTITYSGDELFLQLRGDLLNYLCRKLSKDEAADILQEIYLRWRRQDISSIENPRAFLFTVALNLIRDQARRQAHVQTYANTMQHLFQDKPADYDLAQHCDERRQIEYLQQALDQLPENVRHAFLLFRLDGLTFAEIALQMGISSKSVARYIQHASEHCLTALAQYR", "soluble on expression in E. coli": "not soluble"}, {"sequence": "MGSDKIHHHHHHMSGRTMSSIYILWDASHIWGLLAWRTAQSLDLPYRLVRGEEIAQGLLSGKPPALLLVPGGNARMKSVALGAAGMQAIRDYVRGGGAYVGFCGGAGLGLSGSEGLGLCPWGRARFTDRMQHFVSGHVHARVARGHDLVPADLCTDACAEPPVPIWWPGRFAPEKTGDVEVLATYTTPCDDFWVADLPLDTLPPGTFSEWESLYDIRLRPTFLEDQPCILSGRYGKGRYVLSYTHLETPDSPTANRWLLHIIRTLGGIEPPLQRVPAWDLENQQAAWLDPDLLHARGIFDDIVTIGRNHCLFFKRNAWLIGWRAGIPGANLNNLYAAVVTAVSNPPTAECTAYWQEQRQPFMRKLALFHEGVKGYLLAERLAMTLSKTFPETVSRESLRNQRAALFGPPMDSGGLYQELLDTLDELLYRQLPHGL", "soluble on expression in E. coli": "not soluble"}, {"sequence": "EGELRLGERVLVVGQRLGTIRFFGTTNFAPGYWYGIELEKPHGKNDGSVGGVQYFSCSPRYGIFAPPSRVQRVTDSLDTLSEI", "soluble on expression in E. coli": "soluble"}, {"sequence": "SNAMSTISRDSCPALRAGVRLQHDRARDQWVLLAPERVVELDDIALVVAQRYDGTQSLAQIAQTLAAEFDADASEIETDVIELTTTLHQKRLLRL", "soluble on expression in E. coli": "soluble"}, {"sequence": "MSLRTLVAGVDTSTQSCKVRVTDAETGELVRFGQAKHPNGTSVDPSYWWSAFQEAAEQAGGLDDVSALAVGGQQHGMVILDNQGNVIRDAMLWNDTSSAPQAAALIEKLGAAPAQDGEPEDPIARGKQRWVKAVGSSPVASYTLTKVAWVAENEPENVKKIAAICLPHDWLSWRIAGYGPVAEGEDAHLEALFTDRSDASGTIYYDAASNEYRRDLIAMVLEAAEGAKAAQSHAEAIVLPTVLGPRDAAPVKADPAIAGKNVEGGCLLAPGGGDNAMASLGLGMAVGDVSISLGTSGVAAAISENPTYDLTGAVSGFADCTGHYLPLACTINGSRILDAGRAALGVDYDELAKLAFASKPGANGITLVPYFDGERTPNRPNATATFSGMTLANTTRENLARAFVEGLLCSQRDCLELIRSLGASITRILLIGGGAKSEAIRTLAPSILGMDVTRPATDEYVAIGAARQAAWVLSGETEPPAWQLTIDGVETGEPTEAVYEAYAKARGEGHHHHHH", "soluble on expression in E. coli": "soluble"}, {"sequence": "MGSDKIHHHHHHDEFIQGIGNQNAQESGVWDFSMSISDMKFSQEDGAQTNPMIGMLITQIKDASLSGKIQVDAKKEKAFNLEMKLKAMGMDVPISLVGSLDNEGKEPKLYLATDMMEYIVAVADSMTDGAIDSSQLDTEKLKGKYIDLLAMNEESTKEWQDTIKEYQESEKERKQSAKEYKEFLEGLDKDTFEKKGDTITHTFTKKELQKLIKITTETSEKGKEQDPFEKVKDVSAKVSVNTKENKTNMLINVKPQQDKNVDMGLESLSSKISITQKAKKATISMPKKENILSEQEVEKIFSDSTSMTGLSTEDTTVAINQ", "soluble on expression in E. coli": "not soluble"}, {"sequence": "MVGWRIVRIATHPEVQGRGIGSWLLERLYEESVERGYDWLGSGFGINEQLLRFWLRNGFLVLHLSPD", "soluble on expression in E. coli": "not soluble"}, {"sequence": "MSLKPLAYRMRPTKIEDIIGQQHLVAEDKIIGRMVQAKHLSSMILYGPPGIGKTSIATAIAGSTSIAFRKLNAVINNKKDMEIVAQEAKMSGQVILILDEVHRLDKGKQDFLLPYLENGMIILIGATTANPYHAINPAIRSRTQIFELEPLTPELIKQALERALHDEHRGLGTYSVSIDDQAMEHFAHGCGGDVRSALNALELAVLSTKESADGEIHITLETAEECLQKKSFSHDKDGDAHYDVLSAFQKSIRGSDANAALHYLARLIEAGDLESIARRLLVIAYEDIGLASPQAGPRVLNAIQTAERVGFPEARIPLANAVIELCLSPKSNSAILAIDEALADIRAGKIGDVPKHLKDAHYKGAQELGRGIDYKYPHNYDNGWVEQQYLPDPLKNKQYYKPKQTGKFESALKQVYDKLMKGIITITTDPNSSSVDKLAAALEHHHHHH", "soluble on expression in E. coli": "soluble"}, {"sequence": "MAIDFNAMPPSTWAENLARNQLSKLQTQLDTQTKSAKARTDALSQLQKALQDYKSSLATLTGKKSLVAMNAAATPDGMASVTAKGNAAAGNYSVFVEQLASSQQ", "soluble on expression in E. coli": "not soluble"}]}]}
